{"source": "the RNAGym collection of RNA variant scans (doi:10.7554/elife.80360)", "parents": {"B1": {"name": "Twister Ribozyme (parent)", "chain": "AACACUGCCAAUGCCGGUCCCAAGCCCGGAUAAAAGUGGAGGGGGCGG"}}, "data": [{"variants_of": "B1", "assay": "self-cleavage, relative activity (ratio to wild type); higher = more cleavage; co-transcriptional", "values": [{"variant": "U6C A34C", "self-cleavage": 0.18}, {"variant": "U6A G28U", "self-cleavage": 0.604}, {"variant": "A4U C21A", "self-cleavage": 0.0381}, {"variant": "A4U C21G", "self-cleavage": 0.0541}, {"variant": "A4U C21U", "self-cleavage": 0.0656}, {"variant": "C5G G39A", "self-cleavage": 0.197}, {"variant": "U6A G47A", "self-cleavage": 0.862}, {"variant": "U6A G47U", "self-cleavage": 0.441}, {"variant": "U6A G47C", "self-cleavage": 0.296}, {"variant": "C5A G44A", "self-cleavage": 0.556}, {"variant": "C5A G44U", "self-cleavage": 0.532}, {"variant": "C5A G44C", "self-cleavage": 0.556}, {"variant": "A4U U31C", "self-cleavage": 0.0955}, {"variant": "C5G C25G", "self-cleavage": 0.0808}, {"variant": "C5G C25A", "self-cleavage": 0.0988}, {"variant": "C5U G13U", "self-cleavage": 0.157}, {"variant": "C5U G13A", "self-cleavage": 0.417}, {"variant": "C5U C8U", "self-cleavage": 0.398}, {"variant": "C5A G48U", "self-cleavage": 0.577}, {"variant": "C5A G48A", "self-cleavage": 0.539}, {"variant": "C5A C15U", "self-cleavage": 0.398}, {"variant": "C5U A11G", "self-cleavage": 0.77}, {"variant": "C5G G44U", "self-cleavage": 0.646}, {"variant": "C5G G44A", "self-cleavage": 0.642}, {"variant": "C5G G44C", "self-cleavage": 0.678}, {"variant": "A4U G16C", "self-cleavage": 0.0898}, {"variant": "A4U G16U", "self-cleavage": 0.0436}, {"variant": "C5U C20A", "self-cleavage": 0.105}, {"variant": "C5U C20U", "self-cleavage": 0.816}, {"variant": "A4U C9G", "self-cleavage": 0.0806}, {"variant": "C5U U31G", "self-cleavage": 0.65}, {"variant": "C5U U31A", "self-cleavage": 0.577}, {"variant": "C5U U31C", "self-cleavage": 0.804}, {"variant": "U6A A10C", "self-cleavage": 1.19}, {"variant": "U6A U31A", "self-cleavage": 0.717}, {"variant": "U6A U31C", "self-cleavage": 1.07}, {"variant": "U6A U31G", "self-cleavage": 1.01}, {"variant": "C5U A22G", "self-cleavage": 0.113}, {"variant": "C5A A22U", "self-cleavage": 0.249}, {"variant": "C5A A22G", "self-cleavage": 0.0856}, {"variant": "C5A A22C", "self-cleavage": 0.601}, {"variant": "U6A A33U", "self-cleavage": 0.828}, {"variant": "U6A A33C", "self-cleavage": 0.949}, {"variant": "A4U G43C", "self-cleavage": 0.0736}, {"variant": "A4U G47C", "self-cleavage": 0.111}, {"variant": "C5A G47U", "self-cleavage": 0.486}, {"variant": "C5U C25U", "self-cleavage": 0.507}, {"variant": "C5U C25G", "self-cleavage": 0.149}, {"variant": "C5A C8A", "self-cleavage": 0.133}, {"variant": "C5A C8U", "self-cleavage": 0.335}, {"variant": "C5A G38A", "self-cleavage": 0.206}, {"variant": "C5A G38U", "self-cleavage": 0.0941}, {"variant": "C5A G38C", "self-cleavage": 0.341}, {"variant": "C5U G29C", "self-cleavage": 0.454}, {"variant": "C5U G29U", "self-cleavage": 0.631}, {"variant": "A4U C46A", "self-cleavage": 0.115}, {"variant": "A4U C46G", "self-cleavage": 0.105}, {"variant": "A4U C46U", "self-cleavage": 0.125}, {"variant": "C5A G17C", "self-cleavage": 0.0425}, {"variant": "C5A A33U", "self-cleavage": 0.492}, {"variant": "C5G G16A", "self-cleavage": 0.341}, {"variant": "A4U G24C", "self-cleavage": 0.0697}, {"variant": "A4U G24A", "self-cleavage": 0.0658}, {"variant": "C5A G43A", "self-cleavage": 0.1}, {"variant": "C5A G43U", "self-cleavage": 0.108}, {"variant": "A4U A22G", "self-cleavage": 0.0233}, {"variant": "A4U A22C", "self-cleavage": 0.0902}, {"variant": "C5A C9U", "self-cleavage": 0.0659}, {"variant": "C5A C9A", "self-cleavage": 0.123}, {"variant": "A4U G28C", "self-cleavage": 0.0611}, {"variant": "A4U G28U", "self-cleavage": 0.116}, {"variant": "C5A G45U", "self-cleavage": 0.413}, {"variant": "U6C A30G", "self-cleavage": 0.477}, {"variant": "U6C A30C", "self-cleavage": 0.0653}, {"variant": "A4U C8U", "self-cleavage": 0.0539}, {"variant": "A4U C8G", "self-cleavage": 0.13}, {"variant": "C5G A33G", "self-cleavage": 0.637}, {"variant": "C5U A34C", "self-cleavage": 0.166}, {"variant": "A4U G41C", "self-cleavage": 0.0883}, {"variant": "C5A U31G", "self-cleavage": 0.524}, {"variant": "C5A C14A", "self-cleavage": 0.593}, {"variant": "C5A C14U", "self-cleavage": 0.668}, {"variant": "C5U G41U", "self-cleavage": 0.221}]}]}
